Patent publication US20260374873 (published 2026)

Experiments:
rat B7-H3 = biological target: T1, rat B7-H3 (rat, UniProt Q7TPB4); assay: BLI
T1 chain: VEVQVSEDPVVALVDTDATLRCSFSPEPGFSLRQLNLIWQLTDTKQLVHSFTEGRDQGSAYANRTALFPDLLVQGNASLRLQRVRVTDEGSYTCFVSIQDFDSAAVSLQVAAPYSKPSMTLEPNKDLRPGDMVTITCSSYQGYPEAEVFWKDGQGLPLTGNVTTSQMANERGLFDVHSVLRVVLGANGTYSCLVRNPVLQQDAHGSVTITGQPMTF

human B7-H2 = biological target: T2, human B7-H2 (human, UniProt O75144); assay: ELISA
T2 chain: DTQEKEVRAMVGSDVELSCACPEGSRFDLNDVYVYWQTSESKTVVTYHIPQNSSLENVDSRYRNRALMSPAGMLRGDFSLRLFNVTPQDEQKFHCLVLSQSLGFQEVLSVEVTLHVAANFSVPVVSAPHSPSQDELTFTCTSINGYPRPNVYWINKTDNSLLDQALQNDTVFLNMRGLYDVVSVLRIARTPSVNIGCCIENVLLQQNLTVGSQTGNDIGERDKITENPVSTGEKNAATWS

human B7-H4 = biological target: T3, human B7-H4 (human, UniProt Q7Z7D3); assay: ELISA
T3 chain: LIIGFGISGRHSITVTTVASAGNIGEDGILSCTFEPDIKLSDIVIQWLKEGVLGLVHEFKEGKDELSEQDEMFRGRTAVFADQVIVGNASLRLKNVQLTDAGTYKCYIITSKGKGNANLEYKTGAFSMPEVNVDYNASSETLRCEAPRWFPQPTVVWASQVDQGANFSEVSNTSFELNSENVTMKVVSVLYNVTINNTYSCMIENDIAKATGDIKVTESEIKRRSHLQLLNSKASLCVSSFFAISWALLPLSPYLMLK

human B7-2 = biological target: T4, human B7-2 (human, UniProt P42081); assay: ELISA
T4 chain: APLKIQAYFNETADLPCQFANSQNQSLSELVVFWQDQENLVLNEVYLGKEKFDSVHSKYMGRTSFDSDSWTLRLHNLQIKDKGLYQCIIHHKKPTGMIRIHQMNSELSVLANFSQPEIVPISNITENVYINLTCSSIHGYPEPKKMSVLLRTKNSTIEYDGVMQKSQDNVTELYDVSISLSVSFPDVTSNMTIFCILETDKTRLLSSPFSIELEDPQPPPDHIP

rat B7-H3 on CHO-S = biological target: T5, rat B7-H3 on CHO-S (rat, UniProt Q7TPB4); assay: FACS
T5 chain: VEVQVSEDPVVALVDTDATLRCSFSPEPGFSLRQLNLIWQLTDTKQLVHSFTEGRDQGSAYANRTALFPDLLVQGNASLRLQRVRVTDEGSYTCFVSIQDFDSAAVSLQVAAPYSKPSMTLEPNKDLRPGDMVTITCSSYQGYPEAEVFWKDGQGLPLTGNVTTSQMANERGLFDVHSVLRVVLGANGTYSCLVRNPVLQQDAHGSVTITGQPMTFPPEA

human B7-H1 = human B7-H1 (human, UniProt Q9NZQ7); assay: ELISA
human B7-1 = biological target: T6, human B7-1 (human, UniProt P33681); assay: ELISA
T6 chain: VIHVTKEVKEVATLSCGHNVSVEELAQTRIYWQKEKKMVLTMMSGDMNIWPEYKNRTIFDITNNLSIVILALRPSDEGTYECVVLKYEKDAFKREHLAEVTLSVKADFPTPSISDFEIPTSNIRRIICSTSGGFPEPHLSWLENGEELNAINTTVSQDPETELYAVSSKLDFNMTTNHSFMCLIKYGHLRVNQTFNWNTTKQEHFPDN

Measured: binding result

human B7-H1, sequence (Q9NZQ7 19-238): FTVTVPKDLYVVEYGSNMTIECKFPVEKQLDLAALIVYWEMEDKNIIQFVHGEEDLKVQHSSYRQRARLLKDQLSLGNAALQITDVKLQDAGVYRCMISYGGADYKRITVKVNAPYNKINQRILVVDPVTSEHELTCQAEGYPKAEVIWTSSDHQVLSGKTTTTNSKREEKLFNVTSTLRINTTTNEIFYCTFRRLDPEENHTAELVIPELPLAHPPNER

B1: 2#8890 (antibody, V domains shown)
VH: QVQLQESGPGLVQPSGTLSLTCAVSGGSDSSTNWWTWVRQSPGQGLEWIGEISPIGFTSYSPSLRSRVTISVDKSKTQFSLKLSSVTAADTAVYYCARDRLYFAFWGQGTLVTVSS
VL: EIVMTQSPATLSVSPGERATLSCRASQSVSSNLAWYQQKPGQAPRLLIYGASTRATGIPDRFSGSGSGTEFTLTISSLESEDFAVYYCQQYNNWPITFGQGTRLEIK
no binding: all assays above
